Measured values: article PMC3911823 (The FEBS journal, 2011)
Substitutions are numbered along the chain they refer to. Numbers in names are those of the source. Like-named read-outs stand apart in the source and are kept apart here.

What was measured:
Type in all cases: biochemical, rabbit (Oryctolagus cuniculus)
[1] = substrate: COc1ccc2c(C(F)(F)F)cc(=O)oc2c1; conditions: other: 2B4 E474Q; Michaelis-Menten fit; 37.0 °C
[2] = substrate: CCOc1ccc2c(C(F)(F)F)cc(=O)oc2c1; conditions: other: 2B4 E474Q; Michaelis-Menten fit; 37.0 °C
[3] = substrate: COc1ccc2c(C(F)(F)F)cc(=O)oc2c1; conditions: other: 2B4 WT; substrate O-dealkylation, Michaelis-Menten fit; 37.0 °C
[4] = substrate: CCOc1ccc2c(C(F)(F)F)cc(=O)oc2c1; conditions: other: 2B4 WT; substrate O-dealkylation, Michaelis-Menten fit; 37.0 °C
[5] = substrate: COc1ccc2c(C(F)(F)F)cc(=O)oc2c1; conditions: other: 2B4 E474D; Michaelis-Menten fit; 37.0 °C
[6] = substrate: CCOc1ccc2c(C(F)(F)F)cc(=O)oc2c1; conditions: other: 2B4 E474D; Michaelis-Menten fit; 37.0 °C
[7] = substrate: COc1ccc2c(C(F)(F)F)cc(=O)oc2c1; conditions: other: 2B4 H172A; Michaelis-Menten fit; 37.0 °C
[8] = substrate: CCOc1ccc2c(C(F)(F)F)cc(=O)oc2c1; conditions: other: 2B4 H172A; Michaelis-Menten fit; 37.0 °C
[9] = substrate: COc1ccc2c(C(F)(F)F)cc(=O)oc2c1; conditions: other: 2B4 H172Q; Michaelis-Menten fit; 37.0 °C
[10] = substrate: CCOc1ccc2c(C(F)(F)F)cc(=O)oc2c1; conditions: other: 2B4 H172Q; Michaelis-Menten fit; 37.0 °C
[11] = substrate: COc1ccc2c(C(F)(F)F)cc(=O)oc2c1; conditions: other: 2B4 L437A; Michaelis-Menten fit; 37.0 °C
[12] = substrate: CCOc1ccc2c(C(F)(F)F)cc(=O)oc2c1; conditions: other: 2B4 L437A; Michaelis-Menten fit; 37.0 °C

B1: P450 2B4 E474Q (Oryctolagus cuniculus; E474Q) (protein)
chain: MAKKTSSKGKLPPGPSPLPVLGNLLQMDRKGLLRSFLRLREKYGDVFTVYLGSRPVVVLCGTDAIREALVDQAEAFSGRGKIAVVDPIFQGYGVIFANGERWRALRRFSLATMRDFGMGKRSVEERIQEEARCLVEELRKSKGALLDNTLLFHSITSNIICSIVFGKRFDYKDPVFLRLLDLFFQSFSLISSFSSQVFELFPGFLKHFPGTHRQIYRNLQEINTFIGQSVEKHRATLDPSNPRDFIDVYLLRMEKDKSDPSSEFHHQNLILTVLSLFFAGTETTSTTLRYGFLLMLKYPHVTERVQKEIEQVIGSHRPPALDDRAKMPYTDAVIHEIQRLGDLIPFGVPHTVTKDTQFRGYVIPKNTEVFPVLSSALHDPRYFETPNTFNPGHFLDANGALKRNEGFMPFSLGKRICLGEGIARTELFLFFTTILQNFSIASPVPPEDIDLTPRQSGVGNVPPSYQIRFLAR
- Km [1]: 178 ± 17 µM
- kcat [1]: 0.04 ± 0.005 s⁻¹
- Km [2]: 64 ± 8 µM
- kcat [2]: 0.02 ± 0.0033 s⁻¹
- kcat/Km [2]: 333 M⁻¹ s⁻¹

B2: P450 2B4 wild type (Oryctolagus cuniculus) (protein)
chain: B1 chain with Q455E
- Km [3]: 132 ± 6 µM
- kcat [3]: 0.188 ± 0.0033 s⁻¹
- kcat/Km [3]: 1330 M⁻¹ s⁻¹
- Km [4]: 25 ± 3 µM
- kcat [4]: 0.16 ± 0.0067 s⁻¹
- kcat/Km [4]: 6000 M⁻¹ s⁻¹

B3: P450 2B4 E474D (Oryctolagus cuniculus; E474D) (protein)
chain: B1 chain with Q455D
- Km [5]: 185 ± 14 µM
- kcat [5]: 0.0633 ± 0.0033 s⁻¹
- kcat/Km [5]: 333 M⁻¹ s⁻¹
- Km [6]: 77 ± 10 µM
- kcat [6]: 0.0067 ± 0.0017 s⁻¹

B4: P450 2B4 H172A (Oryctolagus cuniculus; H172A) (protein)
chain: B1 chain with H153A, Q455E
- Km [7]: 126 ± 11 µM
- kcat [7]: 0.0867 ± 0.01 s⁻¹
- kcat/Km [7]: 667 M⁻¹ s⁻¹
- Km [8]: 26 ± 4 µM
- kcat [8]: 0.07 ± 0.005 s⁻¹
- kcat/Km [8]: 2500 M⁻¹ s⁻¹

B5: P450 2B4 H172Q (Oryctolagus cuniculus; H172Q) (protein)
chain: B1 chain with H153Q, Q455E
- Km [9]: 115 ± 15 µM
- kcat [9]: 0.123 ± 0.0083 s⁻¹
- kcat/Km [9]: 1000 M⁻¹ s⁻¹
- Km [10]: 48 ± 6 µM
- kcat [10]: 0.0283 ± 0.005 s⁻¹
- kcat/Km [10]: 667 M⁻¹ s⁻¹

B6: P450 2B4 L437A (Oryctolagus cuniculus; L437A) (protein)
chain: B1 chain with L418A, Q455E
- Km [11]: 85 ± 8 µM
- kcat [11]: 0.03 ± 0.0033 s⁻¹
- kcat/Km [11]: 333 M⁻¹ s⁻¹
- Km [12]: 25 ± 4 µM
- kcat [12]: 0.045 ± 0.0033 s⁻¹
- kcat/Km [12]: 2000 M⁻¹ s⁻¹
